Publication PMC3541965

Experiments:
[1] = molecular target: SRP(∆FL), SRP(C235) labeled with DACM or acrylodan (E. coli) (UniProt P0AGD7); assay: time course of acrylodan fluorescence
[2] = molecular target: Cm-labeled RNC bearing the engineered signal sequence 1A9L; assay: FRET or BRET
[3] = molecular target: RNC bearing the nascent chain of FtsQ (UniProt P06136); assay: fluorescence polarisation
[4] = molecular target: RNC bearing the nascent chain of firefly luciferase (firefly) [luciferase: P08659]; assay: fluorescence polarisation
Sequence of RNC bearing the nascent chain of firefly luciferase (firefly) [luciferase: P08659] (P08659 whole entry, looked up): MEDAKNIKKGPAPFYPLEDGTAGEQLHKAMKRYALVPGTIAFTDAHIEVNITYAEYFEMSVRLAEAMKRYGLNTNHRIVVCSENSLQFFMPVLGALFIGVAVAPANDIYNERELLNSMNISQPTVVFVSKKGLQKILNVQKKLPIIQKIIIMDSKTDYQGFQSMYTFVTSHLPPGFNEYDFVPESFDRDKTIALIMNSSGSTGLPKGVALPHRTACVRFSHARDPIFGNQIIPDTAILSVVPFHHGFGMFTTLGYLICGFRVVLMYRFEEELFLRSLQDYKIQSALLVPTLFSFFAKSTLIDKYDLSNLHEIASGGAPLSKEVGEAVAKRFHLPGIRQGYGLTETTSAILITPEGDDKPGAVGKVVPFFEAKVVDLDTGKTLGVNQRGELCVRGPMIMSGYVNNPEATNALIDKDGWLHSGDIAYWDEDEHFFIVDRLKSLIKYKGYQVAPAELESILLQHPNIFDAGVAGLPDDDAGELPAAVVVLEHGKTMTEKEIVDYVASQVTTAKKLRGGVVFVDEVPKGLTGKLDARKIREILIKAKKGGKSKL

Sequence of RNC bearing the nascent chain of FtsQ (P06136 whole entry, looked up): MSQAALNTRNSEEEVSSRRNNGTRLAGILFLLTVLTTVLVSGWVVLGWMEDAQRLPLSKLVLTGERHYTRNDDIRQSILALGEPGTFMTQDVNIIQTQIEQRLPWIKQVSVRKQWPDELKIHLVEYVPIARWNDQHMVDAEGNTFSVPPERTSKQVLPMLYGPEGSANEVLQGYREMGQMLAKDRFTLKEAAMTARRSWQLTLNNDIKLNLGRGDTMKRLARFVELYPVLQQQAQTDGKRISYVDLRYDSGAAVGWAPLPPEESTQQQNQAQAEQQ

Row | fold weaker Kd (koff/kon) against wild-type SRP [2] | fold change of Kd against wild-type SRP [3] | Substance | further results
1 |  |  | FtsY (from UniProt P10121 1-497) (receptor) | fold slower dissociation rate constant against wild-type SRP [1]: 80 fold
2 | 6 fold |  | SRP(LM→AA) with BODIPY-FL labeled at residue 421 of Ffh (from UniProt P0AGD7 1-453) (complex) | 
3 |  | < 3 fold | SRP(LM→AA) with fluorescein-labeled Ffh(C421) (from UniProt P0AGD7 1-453) (complex) | 
4 | 2 fold |  | SRP(∆FL) with BODIPY-FL labeled at residue 421 of Ffh (from UniProt P0AGD7 1-453) (complex) | 
5 |  | < 3 fold | SRP(∆FL) with fluorescein-labeled Ffh(C421) (from UniProt P0AGD7 1-453) (complex) | 
6 |  |  | wild-type SRP with fluorescein-labeled Ffh(C421) (from UniProt P0AGD7 1-453) (complex) | Kd [3]: 1.7 nM; Kd [4]: 128 nM
